Assay results from publication PMC4757414, “Evidences of Changes in Surface Electrostatic Charge Distribution during Stabilization of HPV16 Virus-Like Particles” (PLoS ONE, 2016).

Biological target: the molecule itself
Assay: static light scattering; Debye plot (Zimm equation) of purified HPV16 VLPs in dilute solution, initial (0 h) and final (48 h) states; T = 298 K; 0.5 M NaCl, 50 mM sodium citrate, 1 mM CaCl2, pH 6

B1: HPV16 L1 protein (assembled into HPV16 virus-like particles) (natural protein)
chain: MSLWLPSEATVYLPPVPVSKVVSTDEYVARTNIYYHAGTSRLLAVGHPYFPIKKPNNNKILVPKVSGLQYRVFRIHLPDPNKFGFPDTSFYNPDTQRLVWACVGVEVGRGQPLGVGISGHPLLNKLDDTENASAYAANAGVDNRECISMDYKQTQLCLIGCKPPIGEHWGKGSPCTNVAVNPGDCPPLELINTVIQDGDMVDTGFGAMDFTTLQANKSEVPLDICTSICKYPDYIKMVSEPYGDSLFFYLRREQMFVRHLFNRAGAVGENVPDDLYIKGSGSTANLASSNYFPTPSGSMVTSDAQIFNKPYWLQRAQGHNNGICWGNQLFVTVVDTTRSTNMSLCAAISTSETTYKNTNFKEYLRHGEEYDLQFIFQLCKITLTADVMTYIHSMNSTILEDWNFGLQPPPGGTLEDTYRFVTSQAIACQKHTPPAPKEDPLKKYTFWEVNLKEKFSADLDQFPLGRKFLLQAGLKAKPKFTLGKRKATPTTSSTSTTAKRKKRKL
notes: major capsid protein L1 (~55 kDa) of human papillomavirus type 16; also called HPV L1; HPV16 VLPs; source: insect cells infected with HPV L1 expressing baculovirus, purified (chromatography and filtration, at least 95% purity); provided by Sino Biological, Inc
binding result: binds
